± gives the uncertainty stated by the source.
Experiment: self-splicing fitness, log relative to wild type (ln ratio); higher = more splicing; Tetrahymena group I intron in knt gene, E. coli kanamycin selection, DiMSum; sequences stand for … in CUCUCU…GGAGGGAAAAGUUAUCAGGCAUGCACCUGGUAGCUAGUCUUUAAACCAAUAGAUUGCAUCGGUUUAAAAGGCAAGACCGUCAAAUUGCGGGAAAGGGGUCAACAGCCGUUCAGUACCAAGUCUCAGGGGAAACUUUGAGAUGGCCUUGCAAAGGGUAUGGUAAUAAGCUGACGGACAUGGUCCUAACCACGCAGCCAAGUCCUAAGUCAACAGAUCUUCUGUUGAUAUGGAUGCAGUUCACAGACUAAAUGUCGGUCGGGGAAGAUGUAUUCUUCUCAUAAGAUAUAGUCGGACCUCUCCUUAAUGGGAGCUAGCGGAUGAAGUGAUGCAACACUGGAGCCGCUGGGAACUAAUUUGUAUGCGAAAGUAUAUUGAUUAGUUUUGGAGUACUCGUGGUCG
Outline: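 DiMSum derived fitness as the error-weighted combination of fold changes across replicates, kanamycin versus no kanamycin, normalised to wild type. E. coli BL21(DE3) held the library, which randomised all eight P1ex-region intron nucleotides within the knt kanamycin-resistance gene on pET-22b(+). Six replicate transformations grew overnight at 37°C or 30°C on LB agar with or without 25 μg/mL kanamycin, also containing 100 μg/mL carbenicillin, 50 μM IPTG and 0.2% rhamnose, and pooled colonies were amplicon-sequenced on an Illumina HiSeq 2500.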

Sequence | self-splicing fitness (ln) (30 °C) | self-splicing fitness (ln) (37 °C)
GUUUAGCAAUAUUACGUGGC | -0.884 ± 0.32 | -1.46 ± 0.33
GUUUAGCAAUAUUACGUGUG | -2.08 ± 0.11 | -1.36 ± 0.11
UAAAAGCAAUAUUACGAAAU | -3.04 ± 0.16 | -2.45 ± 0.21
UAAAAGCAAUAUUACGAACU | -0.332 ± 0.23 | -0.647 ± 0.2
UAAAAGCAAUAUUACGACAU | -1.09 ± 0.012 | -0.402 ± 0.032
UAAAAGCAAUAUUACGACCA | -0.143 ± 0.092 | 0.711 ± 0.13
UAAAAGCAAUAUUACGAGAC | -2.39 ± 0.28 | -2.29 ± 0.26
UAAAAGCAAUAUUACGAGGU | -4.31 ± 0.3 | -1.59 ± 0.17
UAAAAGCAAUAUUACGAUAG | -0.934 ± 0.078 | -0.765 ± 0.088
UAAAAGCAAUAUUACGAUUA | 0.154 ± 0.073 | 0.0591 ± 0.088
UAAAAGCAAUAUUACGCAGU | -2.66 ± 0.16 | -1.3 ± 0.13
UAAAAGCAAUAUUACGCGAC | -3.73 ± 0.33 | -2.64 ± 0.24
UAAAAGCAAUAUUACGCGCA | -0.512 ± 0.084 | 0.752 ± 0.13
UAAAAGCAAUAUUACGCGGA | -1.8 ± 0.08 | -0.32 ± 0.082
UAAAAGCAAUAUUACGCGGU | -3.58 ± 0.29 | -2.34 ± 0.27
UAAAAGCAAUAUUACGCUGG | -1.46 ± 0.13 | -1.65 ± 0.17
UAAAAGCAAUAUUACGGCUG | 0.0596 ± 0.093 | 0.0696 ± 0.12
UAAAAGCAAUAUUACGGCUU | -0.922 ± 0.088 | -0.468 ± 0.11
UAAAAGCAAUAUUACGGGAG | -2.66 ± 0.14 | -1.25 ± 0.11

Sequence | self-splicing fitness (ln) (30 °C) | self-splicing fitness (ln) (37 °C)
UAAAAGCAAUAUUACGGUUC | -3.1 ± 0.17 | -2.42 ± 0.2
UAAAAGCAAUAUUACGUAAA | -1.34 ± 0.077 | -1.1 ± 0.09
UAAAAGCAAUAUUACGUAGG | -2 ± 0.083 | -1.22 ± 0.11
UAAAAGCAAUAUUACGUAUG | -1.07 ± 0.078 | -0.324 ± 0.095
UAAAAGCAAUAUUACGUCAA | -1.57 ± 0.11 | -1.4 ± 0.098
UAAAAGCAAUAUUACGUCUU | -0.765 ± 0.058 | -0.487 ± 0.076
UAAAAGCAAUAUUACGUGGC | -3.46 ± 0.2 | -2.74 ± 0.2
UAAAAGCAAUAUUACGUUCG | -0.052 ± 0.085 | -0.0686 ± 0.11
UAACAGCAAUAUUACGAAAA | -3.2 ± 0.21 | -1.18 ± 0.15
UAACAGCAAUAUUACGAAUU | -3.02 ± 0.13 | -1.86 ± 0.18
UAACAGCAAUAUUACGACGC | -2.37 ± 0.12 | -1.76 ± 0.16
UAACAGCAAUAUUACGACGG | -1.27 ± 0.085 | -0.26 ± 0.11
UAACAGCAAUAUUACGAGGU | -4.14 ± 0.23 | -2.58 ± 0.23
UAACAGCAAUAUUACGAGUG | -0.621 ± 0.038 | -0.34 ± 0.056
UAACAGCAAUAUUACGAUGG | -1.82 ± 0.087 | -0.665 ± 0.1
UAACAGCAAUAUUACGCAAA | -3.11 ± 0.19 | -2.3 ± 0.12
UAACAGCAAUAUUACGCCCA | -0.674 ± 0.12 | 0.423 ± 0.15
UAACAGCAAUAUUACGCGCA | -0.471 ± 0.078 | 0.0314 ± 0.12
